According to patent publication US20180037644A1 (Pfizer, published 2018):
Read-outs that look alike come from different tables or passages of the source. One block for each binder: values may come before it.

Assays:
human IL-33 (mm2) [1] = target: T1, human IL-33 (mm2) (human, UniProt O95760 112-270); assay: cell-based or functional assay
T1 chain: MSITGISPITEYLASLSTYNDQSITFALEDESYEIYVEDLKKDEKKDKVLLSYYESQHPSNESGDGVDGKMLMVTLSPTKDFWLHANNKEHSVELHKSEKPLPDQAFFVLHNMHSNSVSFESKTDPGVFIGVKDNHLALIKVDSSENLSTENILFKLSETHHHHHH

human IL-33 (mm2) [2] = target: T1, human IL-33 (mm2); assay: cell-based or functional assay
human IL-33 (mm2) [3] = target: T1, human IL-33 (mm2); assay: SPR, IgG captured by anti-human Fc, IL-33 in solution
Experimental: (§1) Binding to human and cynomolgus monkey IL-33 was measured by surface plasmon resonance using a BIAcore T200 instrument. An anti-human Fc antibody was immobilized on a CM5 chip, and anti-IL-33 antibodies were captured.

[4] = target: T2, cynomolgus monkey IL-33 (cys mut) (cynomolgus monkey); assay: as above
T2 construct: Variant in which the three cysteine residues are serine; N-terminal Met and C-terminal His6 in the entry; also called cyno IL-33; cyno IL-33 (cys mut)
T2 chain: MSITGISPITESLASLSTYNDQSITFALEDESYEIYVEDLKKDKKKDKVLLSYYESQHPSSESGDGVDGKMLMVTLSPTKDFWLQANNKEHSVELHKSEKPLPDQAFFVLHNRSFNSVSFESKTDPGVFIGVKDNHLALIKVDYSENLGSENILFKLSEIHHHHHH
Experimental: as §1

[5] = target: T3, native human IL-33 from human lung fibroblast (HFL-1) lysate (human, UniProt O95760 1-270, limits assumed); assay: cell-based or functional assay
T3 sequence (looked up): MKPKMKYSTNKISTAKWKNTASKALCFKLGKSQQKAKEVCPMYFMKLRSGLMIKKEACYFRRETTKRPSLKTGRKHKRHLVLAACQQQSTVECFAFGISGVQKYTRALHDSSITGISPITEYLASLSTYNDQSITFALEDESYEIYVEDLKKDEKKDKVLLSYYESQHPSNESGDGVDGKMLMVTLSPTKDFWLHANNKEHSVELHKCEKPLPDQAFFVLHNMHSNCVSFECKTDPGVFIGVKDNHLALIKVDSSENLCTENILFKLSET

[6] = target: T2, cynomolgus monkey IL-33 (cys mut); assay: cell-based or functional assay
human IL-33 (mm2) [7] = target: T1, human IL-33 (mm2); assay: cell-based or functional assay
human IL-33 (mm2) [8] = target: T1, human IL-33 (mm2); assay: cell-based or functional assay
human IL-33 (mm2) [9] = target: T1, human IL-33 (mm2); assay: BIAcore, IgG captured by anti-human Fc, 125 nM IL-33 (mm2)
Experimental: as §1

IC50, HEK293 ST2 NFkB (human IL-33 (mm2) [1]): 885 pM
B1: IL33-62 (antibody, human IgG1, kappa, V domains shown)
VH: EVQLVESGGGLVQPGGSLRLSCAASGFTFSSYWMYWVRQAPGKGLEWVASITPNGGDTYYPDSVKGRFTISRDNAKNSLYLQMNSLRAEDTAVYYCARGHYYYTDYSLGYWGQGTLVTVSS
VL: DIQMTQSPSSLSASVGDRVTITCKASQNINKHLDWYQQKPGKAPKLLIYFTNNLQTGVPSRFSGSGSGTDFTLTISSLQPEDFATYYCFQYNNGWTFGGGTKVEIKR

IC50, HEK293 ST2 NFkB (human IL-33 (mm2) [1]): 161 pM
B2: IL33-80 (antibody, human IgG1, kappa, V domains shown)
VH: EVQLVESGGGLVQPGGSLRLSCAASGFTFSSYWMYWVRQAPGKGLEWVASITPNGGNTYYPDSVKGRFTISRDNAKNSLYLQMNSLRAEDTAVYYCARGHYYYTSYSLGYWGQGTLVTVSS
VL: DIQMTQSPSSLSASVGDRVTITCKASQNINKHLDWYQQKPGKAPKLLIYFTNNLQDGVPSRFSGSGSGTDFTLTISSLQPEDFATYYCFQYNNGWTFGGGTKVEIKR

IC50, HEK293 ST2 NFkB (human IL-33 (mm2) [1]): 174 pM
B3: IL33-74 (antibody, human IgG1, kappa, V domains shown)
VH: EVQLVESGGGLVQPGGSLRLSCAASGFTFSSYWMYWVRQAPGKGLEWVASITPNGGNTYYPDSVKGRFTISRDNAKNSLYLQMNSLRAEDTAVYYCARGHYYYTSYSLGYWGQGTLVTVSS
VL: DIQMTQSPSSLSASVGDRVTITCKASQNINDHLDWYQQKPGKAPKLLIYFTNNLQTGVPSRFSGSGSGTDFTLTISSLQPEDFATYYCFQYNNGWTFGGGTKVEIKR

IC50, HEK293 ST2 NFkB (human IL-33 (mm2) [1]): 168 pM
B4: IL33-81 (antibody, human IgG1, kappa, V domains shown)
VH: EVQLVESGGGLVQPGGSLRLSCAASGFTFSSYWMYWVRQAPGKGLEWVASITPNGGNTYYPDSVKGRFTISRDNAKNSLYLQMNSLRAEDTAVYYCARGHYYYTSYSLGYWGQGTLVTVSS
VL: DIQMTQSPSSLSASVGDRVTITCKASQNINKHLDWYQQKPGKAPKLLIYFTNNLQEGVPSRFSGSGSGTDFTLTISSLQPEDFATYYCFQYNNGWTFGGGTKVEIKR

IC50, HEK293 ST2 NFkB (human IL-33 (mm2) [1]): 156 pM
B5: IL33-75 (antibody, human IgG1, kappa, V domains shown)
VH: EVQLVESGGGLVQPGGSLRLSCAASGFTFSSYWMYWVRQAPGKGLEWVASITPNGGNTYYPDSVKGRFTISRDNAKNSLYLQMNSLRAEDTAVYYCARGHYYYTSYSLGYWGQGTLVTVSS
VL: DIQMTQSPSSLSASVGDRVTITCKASQNIDKHLDWYQQKPGKAPKLLIYFTNNLQTGVPSRFSGSGSGTDFTLTISSLQPEDFATYYCFQYNNGWTFGGGTKVEIKR

IC50, HEK293 ST2 NFkB (human IL-33 (mm2) [2]): 270 pM
B6: 30A1 chimera (antibody, human IgG1, kappa)
heavy: QVNLLQSGATLVKPGASMKMSCKASGYSFTDYWVSWVKQSHGKSLEWIGEIYPNSGANNFNKEFKDKATLTVDKSTSTAYMELTRLTSEDSAVYYCTRGPYYYSSQIIFAYWGQGTLVTVSSASTKGPSVFPLAPSSKSTSGGTAALGCLVKDYFPEPVTVSWNSGALTSGVHTFPAVLQSSGLYSLSSVVTVPSSSLGTQTYICNVNHKPSNTKVDKKVEPKSCDKTHTCPPCPAPEAAGAPSVFLFPPKPKDTLMISRTPEVTCVVVDVSHEDPEVKFNWYVDGVEVHNAKTKPREEQYNSTYRVVSVLTVLHQDWLNGKEYKCKVSNKALPAPIEKTISKAKGQPREPQVYTLPPSREEMTKNQVSLTCLVKGFYPSDIAVEWESNGQPENNYKTTPPVLDSDGSFFLYSKLTVDKSRWQQGNVFSCSVMHEALHNHYTQKSLSLSPGK
light: IIVMTQSPKSMSISVGDRVTMNCKASQNVGNNIAWYRQKPGQSPELLIYYASNRYTGVPDRFTGGGYGTDFTLTINSVQAEDAAFYYCQRIYNSPPTFGGGTKVELKRTVAAPSVFIFPPSDEQLKSGTASVVCLLNNFYPREAKVQWKVDNALQSGNSQESVTEQDSKDSTYSLSSTLTLSKADYEKHKVYACEVTHQGLSSPVTKSFNRGEC

Kd (human IL-33 (mm2) [3]): 540 pM
Kd [4]: 196 pM
% inhibition 0.1 nM Ab, HEK293 ST2 NFkB [5]: 63.8%
% inhibition 1 nM Ab, HEK293 ST2 NFkB [5]: 98.5%
% inhibition 10 nM Ab, HEK293 ST2 NFkB [5]: 107%
B7: 30A1 chimera/hu J (antibody, human IgG1, kappa)
heavy: QVNLLQSGATLVKPGASMKMSCKASGYSFTDYWVSWVKQSHGKSLEWIGEIYPNSGANNFNKEFKDKATLTVDKSTSTAYMELTRLTSEDSAVYYCTRGPYYYSSQIIFAYWGQGTLVTVSSASTKGPSVFPLAPSSKSTSGGTAALGCLVKDYFPEPVTVSWNSGALTSGVHTFPAVLQSSGLYSLSSVVTVPSSSLGTQTYICNVNHKPSNTKVDKKVEPKSCDKTHTCPPCPAPEAAGAPSVFLFPPKPKDTLMISRTPEVTCVVVDVSHEDPEVKFNWYVDGVEVHNAKTKPREEQYNSTYRVVSVLTVLHQDWLNGKEYKCKVSNKALPAPIEKTISKAKGQPREPQVYTLPPSREEMTKNQVSLTCLVKGFYPSDIAVEWESNGQPENNYKTTPPVLDSDGSFFLYSKLTVDKSRWQQGNVFSCSVMHEALHNHYTQKSLSLSPGK
light: IIVMTQSPKSMSISVGDRVTMNCKASQNVGNNIAWYRQKPGQSPELLIYYASNRYTGVPDRFTGGGYGTDFTLTINSVQAEDAAFYYCQRIYNSPPTFGGGTKVEIKRTVAAPSVFIFPPSDEQLKSGTASVVCLLNNFYPREAKVQWKVDNALQSGNSQESVTEQDSKDSTYSLSSTLTLSKADYEKHKVYACEVTHQGLSSPVTKSFNRGEC
notes: also called 30A1 hu Jseg

Kd (human IL-33 (mm2) [3]): 457 pM
Kd [4]: 836 pM
% inhibition 0.1 nM Ab, HEK293 ST2 NFkB [5]: 52.5%
% inhibition 1 nM Ab, HEK293 ST2 NFkB [5]: 96%
% inhibition 10 nM Ab, HEK293 ST2 NFkB [5]: 111%
% inhibition at 20 nM, HEK293 ST2 NFkB [6]: 35%
B8: 9B3 chimera (antibody, human IgG1, kappa)
heavy: EVQLVETGGGLVQPGRSLKLSCVASGFTFSNYWMYWIRQAPGMGLEWVSSINNDGGNTYYLDSVKGRFTISRNNAENTVYLQMNSLRSEDTATYYCAKGHYSYSSYSFSYWGQGTLVTVSSASTKGPSVFPLAPSSKSTSGGTAALGCLVKDYFPEPVTVSWNSGALTSGVHTFPAVLQSSGLYSLSSVVTVPSSSLGTQTYICNVNHKPSNTKVDKKVEPKSCDKTHTCPPCPAPEAAGAPSVFLFPPKPKDTLMISRTPEVTCVVVDVSHEDPEVKFNWYVDGVEVHNAKTKPREEQYNSTYRVVSVLTVLHQDWLNGKEYKCKVSNKALPAPIEKTISKAKGQPREPQVYTLPPSREEMTKNQVSLTCLVKGFYPSDIAVEWESNGQPENNYKTTPPVLDSDGSFFLYSKLTVDKSRWQQGNVFSCSVMHEALHNHYTQKSLSLSPGK
light: DIQMTQSPSVLSASVGDRVTLSCKASHNINKHLDWCQQKVGEAPKLLIYFTNNLQTGIPSRFSGSGSGTDYTLTISSLQPEDVATYFCFQYNSGWTFGGGTKLELKRTVAAPSVFIFPPSDEQLKSGTASVVCLLNNFYPREAKVQWKVDNALQSGNSQESVTEQDSKDSTYSLSSTLTLSKADYEKHKVYACEVTHQGLSSPVTKSFNRGEC
notes: also called chimeric 9B3

IC50, HEK293 ST2 NFkB (human IL-33 (mm2) [2]): 56 pM
estimated IC50, HEK293 ST2 NFkB (human IL-33 (mm2) [7]): 61 pM
IC50, HEK293 ST2 NFkB (human IL-33 (mm2) [8]): 264 pM
koff (human IL-33 (mm2) [9]): 0.000451 s⁻¹
B9: 9B3 chimera/hu J (antibody, human IgG1, kappa)
heavy: EVQLVETGGGLVQPGRSLKLSCVASGFTFSNYWMYWIRQAPGMGLEWVSSINNDGGNTYYLDSVKGRFTISRNNAENTVYLQMNSLRSEDTATYYCAKGHYSYSSYSFSYWGQGTLVTVSSASTKGPSVFPLAPSSKSTSGGTAALGCLVKDYFPEPVTVSWNSGALTSGVHTFPAVLQSSGLYSLSSVVTVPSSSLGTQTYICNVNHKPSNTKVDKKVEPKSCDKTHTCPPCPAPEAAGAPSVFLFPPKPKDTLMISRTPEVTCVVVDVSHEDPEVKFNWYVDGVEVHNAKTKPREEQYNSTYRVVSVLTVLHQDWLNGKEYKCKVSNKALPAPIEKTISKAKGQPREPQVYTLPPSREEMTKNQVSLTCLVKGFYPSDIAVEWESNGQPENNYKTTPPVLDSDGSFFLYSKLTVDKSRWQQGNVFSCSVMHEALHNHYTQKSLSLSPGK
light: DIQMTQSPSVLSASVGDRVTLSCKASHNINKHLDWCQQKVGEAPKLLIYFTNNLQTGIPSRFSGSGSGTDYTLTISSLQPEDVATYFCFQYNSGWTFGQGTKVEIKRTVAAPSVFIFPPSDEQLKSGTASVVCLLNNFYPREAKVQWKVDNALQSGNSQESVTEQDSKDSTYSLSSTLTLSKADYEKHKVYACEVTHQGLSSPVTKSFNRGEC
notes: also called 9B3 chimera huJseg

IC50, HEK293 ST2 NFkB (human IL-33 (mm2) [2]): 49 pM
B10: 7E8 chimera (antibody, human IgG1, kappa, V domains shown)
VH: EVQLVETGGGLVQPGRSLKLSCKTSGFTFSSYWMYWIRQAPGKGLEWVSSITPNGGNTYYPDSVKGRFTISRDNAENTIYLQMSSLRSEDTATYFCAKGHYYYTSYSLGYWGQGSLVTVSS
VL: EIQMTQSPSVLSASVGDRVTLSCKASQNINKHLDWYQQKLGEAPKLLIYFTNNLQTGIPSRFSGSGSGTDCTLTINSLQPGDVATYFCFQYNNGWTFGGGTKLELDR
